In US20240401239A1 (US Dept. of Health and Human Services, published 2024):

B1: RBD-1-2G-Fc (Fc fusion)
chain: EVQLVESGGGLVQPGGSLRLSCAASGFSSIVYMGWFRQAPGKGRELVAAIDASGSTTNYPDSVEGRFTISRDNAKRMVYLQMNSLRAEDTAVYYCAIAYFTSPEYVVSQGWGQGTQVTVSS
notes: also called bivalent format of RBD-1-2G
B2: single-domain antibody RBD-1-2G (VHH)
VHH: B1 chain
notes: also called RBD-1-2G Nb; RBD-1-2G nanobody
B3: RBD-1-2G-Tri (bispecific antibody)
chain: EVQLVESGGGLVQPGGSLRLSCAASGFSSIVYMGWFRQAPGKGRELVAAIDASGSTTNYPDSVEGRFTISRDNAKRMVYLQMNSLRAEDTAVYYCAIAYFTSPEYVVSQGWGQGTQVTVSSGGGGSGGGGSGGGGSEVQLVESGGGLVQPGGSLRLSCAASGFSSIVYMGWFRQAPGKGRELVAAIDASGSTTNYPDSVEGRFTISRDNAKRMVYLQMNSLRAEDTAVYYCAIAYFTSPEYVVSQGWGQGTQVTVSSGGGGSGGGGSGGGGSEVQLVESGGGLVQPGGSLRLSCAASGFSSIVYMGWFRQAPGKGRELVAAIDASGSTTNYPDSVEGRFTISRDNAKRMVYLQMNSLRAEDTAVYYCAIAYFTSPEYVVSQGWGQGTQVTVSSHHHHHH

Tests used:
[1] = biological target: SARS-COV-2 S protein (Wuhan-Hu-1, WT) on MLV pseudotyped particles (SARS-COV-2, UniProt P0DTC2 14-1254); test: cell-based or functional assay
[2] = biological target: spike protein of authentic SARS-COV-2 virus (USA_WA1/2020) (SARS-COV-2, UniProt P0DTC2 14-1273); test: cell-based or functional assay
[3] = biological target: SARS-COV-2 spike protein receptor binding domain fused to an Fc tag (RBD-Fc, residues 319-541) (Sino … (SARS-COV-2, UniProt P0DTC2 319-541))
[4] = biological target: T1, mitochondrial elongation factor 1 (MIEF1) (human, UniProt Q9NQG6 1-463); test: flow cytometry validation after the membrane proteome array screen
T1 construct: whole, on cells
T1 sequence (Q9NQG6 whole entry): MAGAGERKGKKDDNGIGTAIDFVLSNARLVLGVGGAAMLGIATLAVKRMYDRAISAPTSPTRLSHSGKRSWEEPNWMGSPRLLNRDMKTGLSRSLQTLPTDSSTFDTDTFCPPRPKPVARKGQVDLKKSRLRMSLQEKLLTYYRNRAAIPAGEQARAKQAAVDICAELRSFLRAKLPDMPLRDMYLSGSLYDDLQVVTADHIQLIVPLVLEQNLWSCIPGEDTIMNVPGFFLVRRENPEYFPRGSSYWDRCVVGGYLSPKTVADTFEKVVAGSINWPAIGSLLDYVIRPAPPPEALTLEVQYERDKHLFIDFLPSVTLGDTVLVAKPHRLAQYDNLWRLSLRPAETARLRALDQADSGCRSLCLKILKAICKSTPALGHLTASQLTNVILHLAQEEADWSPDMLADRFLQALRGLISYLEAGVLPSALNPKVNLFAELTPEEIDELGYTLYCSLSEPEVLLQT

Binder	IC50, pseudotyped particle entry assay, wildtype particles [1] [nM]	IC50, SARS-COV-2 live virus (CPE) assay on Vero E6 cells [2] [nM]	IC50 [3] [nM]	IC50, SARS-COV-2 pseudotyped particle entry assay (HEK293-ACE2 cells) [1] [nM]	IC50, SARS-COV-2 live virus assay, lyophilized and reconstituted RBD-1-2G [2] [nM]	IC50, SARS-COV-2 live virus assay, untreated RBD-1-2G [2] [nM]	binding result [4]
B1	10.2	255	–	–	–	–	–
B2	512	1210	28.3	490	5900	14800	no binding
B3	4.5	182	–	–	–	–	–
